This is an account of results in patent US20190119348A1, “PARATHYROID HORMONE RECEPTOR 1 ANTAGONIST AND INVERSE AGONIST POLYPEPTIDES AND METHODS OF THEIR USE” (The General Hospital Corporation, priority 2016, published 2019).

Where no end group is shown, it is not given here.

The target in test [1] is hPTHR1-H223R (human) (UniProt Q03431). In words: cell-based or functional assay.
Test [2] concerns the target human parathyroid hormone receptor 1 (hPTHR1) (human) (UniProt Q03431). In words: cell-based or functional assay.
The target in test [3] is T1, human PTHR1-H223R (Homo sapiens, UniProt Q03431, H223R).
T1 construct: expressed in transfected cells; host or cells: GHR-10 (HEK-293 stably expressing GloSensor and PTHR1-H223R)
T1 sequence (Q03431 27-593 H223R): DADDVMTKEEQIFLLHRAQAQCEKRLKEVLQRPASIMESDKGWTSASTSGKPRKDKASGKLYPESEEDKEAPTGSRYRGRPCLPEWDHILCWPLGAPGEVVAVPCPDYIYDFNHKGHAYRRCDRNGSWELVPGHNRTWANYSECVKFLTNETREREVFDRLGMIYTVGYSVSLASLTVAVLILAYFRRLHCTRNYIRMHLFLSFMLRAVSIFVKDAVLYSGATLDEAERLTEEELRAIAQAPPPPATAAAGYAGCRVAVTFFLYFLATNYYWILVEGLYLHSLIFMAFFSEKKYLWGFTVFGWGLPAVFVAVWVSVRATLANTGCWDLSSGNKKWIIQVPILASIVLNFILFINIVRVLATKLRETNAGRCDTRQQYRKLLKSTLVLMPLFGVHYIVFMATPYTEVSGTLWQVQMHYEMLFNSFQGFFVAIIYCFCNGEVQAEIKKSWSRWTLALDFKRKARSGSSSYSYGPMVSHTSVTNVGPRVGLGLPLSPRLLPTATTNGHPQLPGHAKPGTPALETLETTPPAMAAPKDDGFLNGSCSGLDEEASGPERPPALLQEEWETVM
The test is described as follows: Inverse agonism on basal cAMP signaling in GHR-10 cells. It is filed as cell-based. Conditions: GHR-10 cells, from AUC, representative experiment. The method, then: cAMP signaling was assessed in the HEK293-derived or SaOS2-derived cell lines stably expressing the luciferase-based GloSensor™ cAMP reporter (Hattersley et al., Paper presented at: Novel Signaling Mechanisms and Bone Cell Biology 2014; Binkowski et al., Methods in molecular biology. 756:263-271). HEK-293 cells were further transfected to stably express the hPTHR1, hPTHR1-H223R, or hPTHR1-T410P. The cells were seeded into 96-well white plates and were assayed 24 to 48 hours post-confluency. Assays were performed at room temperature in CO2-independent culture media (Life Technologies, Corp., Carlsbad, Calif.) containing 0.1% BSA (CIDB). The cells were pre-loaded with luciferin (0.5 mM in CIDB) for 15 minutes, then PTH peptides were added at varying concentrations. cAMP-dependent luminescence was measured at two-minute intervals using a PerkinElmer Envision plate reader. The time at which maximum luminescence (cps) observed with agonist alone, typically at 10-20 minutes after agonist addition, was used to obtain data from wells containing antagonist with or without agonist, to thus generate antagonist ligand dose-response curves. The resulting cps values were then plotted against ligand concentration using GraphPad Prism 7.0 software and a four-parameter logistics curve fitting equation, which yielded parameters of inhibitory potency (pIC50).
These experiments were performed in HEK-293 cells stably transfected to express the GloSensor™ cAMP reporter along with a constitutively active mutant human PTHR1. The HEK-293 cells stably expressing GloSensor™ cAMP reporter along with a constitutively active mutant human PTHR1-H223R are GHR-10 cells. The HEK-293 cells stably expressing GloSensor™ cAMP reporter along with a constitutively active mutant human PTHR1-T410P are GTP-4 cells. The HEK-293 cells stably expressing GloSensor™ cAMP reporter along with a WT-PTHR1 are GP-2.3 cells. GP-2.3 cells were used as control. […] Effects on basal cAMP signaling over time were assessed during periods of direct ligand addition (FIGS. 15A-15F). The measurements were performed by recording GloSensor™ luminescence as counts per second (cps) using a PerkinElmer Envision plate reader. The data are illustrated in FIGS. 15A-15F. Data are from triplicate wells (means±SEM) of a single experiment representative of two others.
Persistence of the antagonist/inverse agonist effects (prolonged action) as follows. Effects of eight peptides on basal and PTH(1-34)-stimulated cAMP signaling by PTHR-H223R were assessed in GHR-10 cells (HEK-293-derived cells stably expressing glosensor cAMP reporter and PTHR1-H223R). Time courses of changes in cAMP levels were recorded in three consecutive phases:
1) after initial addition of a candidate antagonist/inverse agonist (1×10^−6 M-1×10^−9 M) to cells pre-loaded for […] with luciferin (left column);
2) after removal of unbound inverse agonist by extensive wash-out with buffer and replenishment with fresh luciferin-containing buffer (middle column); and
Control wells were treated with vehicle. GloSensor™ luminescence, as counts per second (cps), was recorded using a PerkinElmer Envision plate reader. Data are from duplicate wells (means±SEM) of a single experiment representative of two others. The results are illustrated in Table 7 and in FIGS. 16A-16C, 17A-17C, 18A-18C, 19A-19C, 20A-20C, 21A-21C, 22A-22C, and 23A-23C.
GHR10 cells were treated with vehicle or vehicle containing the indicated peptide for 24 minutes and cAMP-dependent luminescence was recorded at two-minute intervals. The cells were then washed to remove unbound ligand and media containing fresh luciferin was added, and cAMP luminescence was recorded for another 26 minutes. Percentage reduction was calculated from the area-under-the-curve (AUC) values derived from the time course plots using the equation: […]

For “L11, dW12, W23-LA-PTH(5-36)-2003 (peptide)”, in test [1], the Reduction of basal cAMP, % vehicle; After ligand washout; GHR-10 cells was 64 % vehicle and the Reduction of basal cAMP, % vehicle; Ligand @ -6M; GHR-10 cells was 66 % vehicle. Further, in test [2], the IC50, antagonism of PTH(1-34) (0.3 nM)-induced cAMP response, SGS-72 cells was 2.57 nM and the pIC50, antagonism of PTH(1-34) (0.3 nM)-induced cAMP response, SGS-72 cells was 8.59 -log M.

In test [1], “L11, dW12, W23-LA-PTH(7-36)-2001 (peptide)” had a Reduction of basal cAMP, % vehicle; After ligand washout; GHR-10 cells of 65 % vehicle and a Reduction of basal cAMP, % vehicle; Ligand @ -6M; GHR-10 cells of 66 % vehicle. Moreover, in test [2], the IC50, antagonism of PTH(1-34) (0.3 nM)-induced cAMP response, SGS-72 cells was found to be 2.08 nM and the pIC50, antagonism of PTH(1-34) (0.3 nM)-induced cAMP response, SGS-72 cells is 8.68 -log M.

For the substance “LA-PTH(5-36)-2012 (IQLMHQRAKWIQDARRRAFLHKLIAEIHTAEI-NH2) [compound 2012]”, the “Reduction of basal cAMP, % vehicle, After ligand washout” value in test [3] (26 minutes after washout of unbound ligand) is on record as −49 % vehicle. The “Reduction of basal cAMP, % vehicle, Ligand @ −6M” value in test [3] (peptide 1×10^−6 M for 24 minutes) is reported as −15 % vehicle.

In test [1], “Nle8, L11, dW12, W23-LA-PTH(5-36)-1999 (peptide)” yielded a Reduction of basal cAMP, % vehicle; After ligand washout; GHR-10 cells of 62 % vehicle and a Reduction of basal cAMP, % vehicle; Ligand @ -6M; GHR-10 cells of 63 % vehicle. Further, in test [2], the IC50, antagonism of PTH(1-34) (0.3 nM)-induced cAMP response, SGS-72 cells was 2.75 nM and the pIC50, antagonism of PTH(1-34) (0.3 nM)-induced cAMP response, SGS-72 cells was 8.56 -log M.

“Nle8, L11, dW12, W23-LA-PTH(7-36)-1997 (peptide)”: in test [1], the Reduction of basal cAMP, % vehicle; After ligand washout; GHR-10 cells was 71 % vehicle and the Reduction of basal cAMP, % vehicle; Ligand @ -6M; GHR-10 cells was found to be 70 % vehicle. Further, in test [2], the IC50, antagonism of PTH(1-34) (0.3 nM)-induced cAMP response, SGS-72 cells is 2.1 nM and the pIC50, antagonism of PTH(1-34) (0.3 nM)-induced cAMP response, SGS-72 cells was 8.68 -log M.

In test [1], “Nle8, dW12, W23-LA-PTH(7-36)-1992 (peptide)” showed a Reduction of basal cAMP, % vehicle; After ligand washout; GHR-10 cells of 40 % vehicle and a Reduction of basal cAMP, % vehicle; Ligand @ -6M; GHR-10 cells of 51 % vehicle. Also, in test [2], the IC50, antagonism of PTH(1-34) (0.3 nM)-induced cAMP response, SGS-72 cells amounted to 1.55 nM and the pIC50, antagonism of PTH(1-34) (0.3 nM)-induced cAMP response, SGS-72 cells was 8.81 -log M.

In test [1], dW12, W23-LA-PTH(7-36)-1990 (peptide) showed a Reduction of basal cAMP, % vehicle; After ligand washout; GHR-10 cells of 39 % vehicle and a Reduction of basal cAMP, % vehicle; Ligand @ -6M; GHR-10 cells of 50 % vehicle. Further, in test [2], the IC50, antagonism of PTH(1-34) (0.3 nM)-induced cAMP response, SGS-72 cells was 1.23 nM and the pIC50, antagonism of PTH(1-34) (0.3 nM)-induced cAMP response, SGS-72 cells was 8.91 -log M.
